In PMC13076993:

Columns and labels:
[1] = biological target: human PD-1 (programmed cell death 1) on Jurkat cells (human) (UniProt Q15116)
[2] = biological target: human PD-1 (programmed cell death 1) on Jurkat cells (human) (UniProt Q15116); remark: listed apart in the source

Chain of UniProt Q15116 (Q15116 25-288): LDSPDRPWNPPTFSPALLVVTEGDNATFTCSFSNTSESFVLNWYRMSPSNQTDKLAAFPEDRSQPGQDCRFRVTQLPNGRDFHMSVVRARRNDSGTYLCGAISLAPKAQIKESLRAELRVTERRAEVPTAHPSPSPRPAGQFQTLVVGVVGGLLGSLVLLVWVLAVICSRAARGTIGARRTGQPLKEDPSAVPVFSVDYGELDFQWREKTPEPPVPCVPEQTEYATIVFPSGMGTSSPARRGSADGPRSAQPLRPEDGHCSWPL

human PD-L1 extracellular domain (from E. coli) (from UniProt Q9NZQ7 19-238) (ligand)
IL-2 secretion of Jurkat cells stimulated with CO-L1 beads (CD3 antibody and PD-L1) in the presence of soluble S-PDL1 at various concentrations [1]: 100 µg/mL
force at which the bond lifetime peaks [2]: 7 pN
